# Measured values taken from patent publication US10704026B2, “Ex vivo culture, proliferation and expansion of intestinal epithelium” (The Board of Trustees of the Leland Stanford Junior …, priority 2008, dated 2020).
# “Also recorded” adds a separate entry of the source.
# B1: RSpo1: secreted glycoprotein, Wnt agonist, Genbank Accession NP_001033722 (protein, UniProt Q2MKA7 21-263, looked up)
# R-spondin-1: SRGIKGKRQRRISAEGSQACAKGCELCSEVNGCLKCSPKLFILLERNDIRQVGVCLPSCPPGYFDARNPDMNKCIKCKIEHCEACFSHNFCTKCKEGLYLHKGRCYPACPEGSSAANGTMECSSPAQCEMSEWSPWGPCSKKQQLCGFRRGSEERTRRVLHAPVGDHAACSDTKETRRCTVRRVPCPEGQKRRKGGQGRRENANRNLARKESKEAGAGSRRRKGQQQQQQQGTVGPLTSAGPA
# B2: Dkk1: Wnt inhibitor; murine Dkk1 bearing N-terminal HA-tag and C-terminal FLAG and 6×His tags (protein, UniProt O54908 32-272, looked up)
# Dickkopf-related protein 1: TLNSVLINSNAIKNLPPPLGGAGGQPGSAVSVAPGVLYEGGNKYQTLDNYQPYPCAEDEECGSDEYCSSPSRGAAGVGGVQICLACRKRRKRCMRHAMCCPGNYCKNGICMPSDHSHFPRGEIEESIIENLGNDHNAAAGDGYPRRTTLTSKIYHTKGQEGSVCLRSSDCAAGLCCARHFWSKICKPVLKEGQVCTKHKRKGSHGLEIFQRCYCGEGLACRIQKDHHQASNSSRLHTCQRH
# modifications: N-terminal HA tag, C-terminal FLAG and 6xHis tags
# notes: murine Dkk1 bearing N-terminal HA-tag and C-terminal FLAG and 6×His tags
# Assays:
# [1] = test system: intestinal epithelial proliferation; settings: cited from earlier work
# intestinal explants = assay: Growth of intestinal explant (sphere) cultures under Wnt modulation; type: cell-based, mouse; settings: for explant growth: intestinal explant culture
# Source text: Small intestine or colon of C57Bl/6J mice is procured under sterile conditions, minced and mixed with type I collagen gel. Subsequently, these explant containing gels are poured onto transwell cell culture inserts with a collagen gel layer. Transwell cell culture inserts are available commercially from a number if resources e.g. Corning, Signaaldrich. These cell culture inserts are placed into secondary outer dishes containing HAMs F-12 with 20% FCS. Proliferation and histology of the explant is depicted in FIG. 4A-4D. Electron micrographs of the intestinal explants in FIG. 5A-5E reveal that the ultrastructure of the intestinal epithelium is preserved.
# Before preparing the tissue, an inner container with a gel as bottom layer was made. The procedure described herein used Cellmatrix type I-A (Nitta Gelatin Inc.) e.g. collagen gel. The inner dish has permeable membrane bottom. Millicell culture plate inserts (Millicell-CM, Millipore Co.) or Falcon cell culture inserts (BD Co.) was used as the inner dish. 1 ml of collagen gel solution was poured into a 30-mm diameter inner dish in combination with 60 mm diameter outer dish and 2 ml of culture media. 0.3 ml collagen gel solution was poured into 10-mm diameter inner dish in combination with a 24-well outer dish and 0.5 ml of culture media.
# Small or large intestine was removed from mouse (fetus, neonate, juvenile, or adult) aseptically. The removed tissue was immediately immersed in ice-cold PBS or other culture media/tissue preservative solution such as Ham's F12, MEM, etc. The small intestine or colon are opened lengthwise and washed in ice-cold PBS to remove all luminal contents. The washed tissue was minced with scissors to a size less than about 0.1 mm^3. The minced tissue was mixed in ice-cold collagen gel solution and poured onto the prepared inner dish. The inner dish was placed in an outer dish. The gel was solidified at 37° C. for 30 min. After solidification of the gel, culture media was poured into outer dish. Ham's F12 supplemented with 20% fetal calf serum and 50 μg/ml gentamicin was used as culture medium. The culture can be sustained for over a year at 37° C. in a humidified atmosphere of 5% CO2 in air. Medium was changed about every 7 days.
# Three-Dimensional Explant Culture System. The mouse small and large intestine (optimally postnatal days 0-2) was opened lengthwise and washed in PBS to remove all luminal contents. A 1 cm segment was minced immediately and extensively on ice with iris scissors. The minced tissues were embedded in a three-dimensional collagen gel using a double-dish culture system. A 1 ml collagen gel solution (Nitta Gelatin Co.) was poured into a 30-mm dish (Millicell-CM, Millipore Co.), the inner dish, with a nitrocellulose bottom to form an acellular layer. Next, a 1 ml collagen gel solution containing a total of 0.1 g minced tissues was placed on the acellular layer in the dish. This inner dish was placed into a 90-mm outer dish containing 10 ml Ham's F12 supplemented with 20% FCS and 50 μg/ml gentamicin. The culture assembly was carried out for 7-365 days at 37 C in a humidified atmosphere of 5% CO2 in air, and the medium was changed every 7 days. Where appropriate, murine RSpo1-Fc, Dkk1 or DBZ (Calbiochem) were included in the outer dish medium at 500 ng/ml, 0.5-50 μg/ml and 10 μM respectively with change of medium every 1-2 days.
# This culture system maintains the cultured cells embedded in the collagen gel under an air-liquid interface environment. Before preparing the tissue, an inner dish with collagen gel bottom layer should be made. The following procedure is done using Cellmatrix type I-A (Nitta Gelatin Inc.) as a premixed type I collagen gel, however, other products are able to use as an extracellular matrix, such as matrigel. The inner dish should have permeable and/or pored membrane bottom, such as a cell culture insert. […]
Molecule,intestinal proliferation in vivo [1],explant growth (intestinal explants),explant growth (intestinal explants; listed as R-Spondin1),"effect on epithelial layer of pre-established spheres (intestinal explants; d28 pre-established small or large intestine spheres, treated additional 5d)","long-term regrowth after transient treatment (intestinal explants; jejunal explants, 50 μg/ml for 7 days, then 35d without Dkk1)",growth when added to culture media at the time of plating (intestinal explants; recombinant protein at plating)
B1,strongly augments intestinal proliferation in vivo; also recorded: strongly induce intestinal proliferation in vivo,stimulation; also recorded: markedly stimulated; also recorded: increased growth,promoted,,,
B2,rapid cessation of intestinal epithelial proliferation and crypt loss,inhibited; also recorded: strong inhibition of explant growth,,rapid degeneration of the epithelial layer,lack of long-term repopulation; also recorded: sufficient to ablate culture growth; also recorded: No growth of intestinal spheres was observed,dose-dependent growth inhibition
